Measurements published in a protein production outcome set (Wang et al. 2014).

Experiment: label from the status in PepcDB records

| Sequence | protein production |
| --- | --- |
| SNGQADRCDRTAYVSGLQPTISDIELFEVFNRVAHVEKVIVRNGAARHALIVFKTVQGLYQVLVNFQGTTLHGRQLHIRPLRESSHANSEAISTMFEKVKHQGNSGNSSYRQEHSFPEYRNQNPQASSYLPPNPRGHRNSTGCFNGGGGGYGRRRSAGGYNQYNQNKYPNETYPGMTLFDNHPVQQYSGFNPIDFRFDDYVEGAKRFDNLANLIRSSTPTDPFANYQKPCESTSTSRSRTNSAKDQKHGPPTWKMELQIKKDDHHHAGGGAATTGQKLSPQQFLAQIAQRQQSEQNADEVAKKKRPNLSVINPSLFYEQYPRTSSPVVYASKSKPSGHYDDKIASPHDPAVLAYSRLRVPQSAFDSLSPIDTDNCSFITKHLGPTTGVKRDLTNDELSDMIVSTGNLRINPTNIDHHDEPAPWSPLKRLRAESGSLSTAQVASPEFSPIKPKTMEFHETEDDVFETGPPPTYLSEGNENAEKKCVEQPKINYDDINNSRLPSNSHSAAPNSEKKHFVFPEYPMCRHSSVPSIAHLVGDLSDFCPHATADEKMLLDEASSIIENTTPAVSTAPAAAPGATMLQI | not failed |
| SQKSLKRGQELNNQYETKAKRLKIDPCLVVDSPFNHGFTAQEILKGAKNNGEISFLIRFWHLDQPQVVPSGIAYVEIPQMVLKFYENHCNFHDYLNNYIS | failed |
| SQLINLPMDQILYLSTSDIKHHVHLQTIHTLMDIRANLADFKKIHKKLYPCHRSYIVNTDMIISVNKTNYEATLINGQVLPVSRMKIGKIAQIVEERGR | not failed |
| SQNSKTPFPEYFWSWFETYKESSVSERTKLTYKNTFNVLKKHLGGIPIEEMDRRLYRKFIAEFGKDHAKSTVSKFNSLYHACVKDAMYDGDMTKDFIAGTDIVYNRKKTRK | failed |
| SQPDHGRLSPPEAPDRPTISTASETSVYVTWIPRGNGGFPIQSFRVEYKKLKKVGDWILATSAIPPSRLSVEITGLEKGISYKFRVRALNMLGESEPSAPSRPYVVSG | not failed |
| SRGMTPGSRLIDYQLIDSTEELAAILGCGHPSSIHKITRVRLANDIPMAIESSHIPFELAGELNESHFQSSIYDHIERYNSIPISRAKQELEPSAATTEEANILGIQKGAPVLLIKRTTYLQNGTAFEHAKSVYRGDRYTFVHYMDRLS | failed |
| SRGPEPGPQPTMEGDVLDTLEALGYKGPLLEEQALTKAAEGGLSSPEFSELCIWLGSQIKSLCNLEESITSAGRDDLESFQLEISGFLKEMACPYSVLISGDIKDRLKKKEDCLKLLLFLSTELQASQILQNKKHKNSQLDKNSEVYQEVQAMFDTLGIPKSTTSDIPHMLNQVESKVKDILSKVQKNHVGKPLLKMDLNSEQAEQLERINDALSCEYECRRRMLMKRLDVTVQSFGWSDRAKVKTDDIARIYQPKRYALSPKTTITMAHLLAAREDLSKIIRTSSGTSREKTACAINKVGVSFSTVENELMISYLMFLQILVYFSFMSW | not failed |
| SRPRLSQLSVTDVTTSSLRLNWEAPPGAFDSFLLRFGVPSPSTLEPHPRPLLQRELMVPGTRHSAVLRDLRSGTLYSLTLYGLRGPHKADSIQGTARTL | not failed |
| SSCGNDESDPDSTVTIAMATVEKQPQYDAPYLVLDNGEKLWVVQHIVPYRDLKAGERIFGNYSFLEAGESGFAYNIRLNDYTLVPVQKIIGLNPDNMDSIGNMKVQIKDMWPSDDYLNVRFMLNFPSPQKPILNLVVNEMIPWTKDGYAHLELRYNNNGSQGRLVPGMVSFKLDDYSPENSELKGIKVLVNPVDGEEKTYIFSYPLTGEDVPGFNPLDLAELK | not failed |
| SSEANSNSEFQTFIEQENQKAAIQAAISKLTETCWDKCVGKPGSKLDRAESECIANCAERFLDSSSFIMQRLMKKQ | not failed |
| SSFQSTTGHCVHMRGLPYRATENDIYNFFSPLNPMRVHIEIGPDGRVTGEADVEFATHEDAVAAMAKDKANMQHRYVELFLNSTAGTSG | not failed |
| SSPQHLLVGGSGWNKIAIINKDTKEIVWEYPLEKGWECNSVAATKAGEILFSYSKGAKMITRDGRELWNIAAPAGCEMQTARILPDGNALVAWCGHPSTILEVNMKGEVLSKTEFETGIERPHAQFRQINKNKKGNYLVPLFATSEVREIAPNGQLLNSVKLSGTPFSSAFLDNGDCLVACGDAHCFVQLNLESNRIVRRVNANDIEGVQLFFVAQLFPLQNGGLYICNWQGHDREAGKGKHPQLVEIDSEGKVVWQLNDKVKFGMISTICPIRE | not failed |
| SSPVPFGPEGRLEDKLHKPKATQTEVKPSVRFNLRTSKDPEHEGCYLSVGHSQPLEDCSFNMTAKTFFIIHGWTMSGIFENWLHKLVSALHTREKDANVVVVDWLPLAHQLYTDAVNNTRVVGHSIARMLDWLQEKDDFSLGNVHLIGYSLGAHVAGYAGNFVKGTVGRITGLDPAGPMFEGADIHKRLSPDDADFVDVLHTYTRSFGLSIGIQMPVGHIDIYPNGGDFQPGCGLNDVLGSIAYGTITEVVKCEHERAVHLFVDSLVNQDKPSFAFQCTDSNRFKKGICLSCRKNRCNSIGYNAKKMRNKRNSKMYLKTRAGMPFRVYHYQMKIHVFSYKNMGEIEPTFYVTLYGTNADSQTLPLEIVERIEQNATNTFLVYTEEDLGDLLKIQLTWEGASQSWYNLWKEFRSYLSQPRNPGRELNIRRIRVKSGETQRKLTFCTEDPENTSISPGQELWFRKCRDGWRMKNETSPTVELP | not failed |
| SSQWHHPRSGWGRRRDFSGRSSAKKKGGNHIPERWKDYLPVGQRMPGTRFIAFKVPLQKSFEKKLAPEECFSPLDLFNKIREQNEELGLIIDLTYTQRYYKPEDLPETVPYLKIFTVGHQVPDDETIFKFKHAVNGFLKENKDNDKLIGVHCTHGLNRTGYLICIYLIDVEGVRPDDAIELFNRCRGHCLERQNYIEDLQNGPIRKNWNSSVPRSSDFEDSAHLMQPVHNKPVKQGPRYNLHQIQGHSAPRHFHTQTQSLQQSVRKFSENPHVYQRHHLPPPGPPGEDYSHRRYSWNVKPNASRAAQDRRRWYPYNYSRLSYPACWEWTQ | not failed |
| SSSTEVKDNVLTEEEKAEGYTLLFNGKDFTGWKMFNGGDVKGWQVEDGVIVGYGNGGDVIADTTIKVSTDIVTVKNYHNFQIKWDWKIGAQGNSGFLYHVQEGPKYKAPFETGPEYQLIDDDNYPWVSETGKEGLEDWQKTGCNYAMYVPETKQVNPPGEWNSSMVLYKDGYVEHWLNGEKLFSFQEGSEDWKMRRYSGKWEAFPDYGISTTGKLCFQDHGSKVYFKNVKIKDLD | not failed |
| SSTHGSRFPLCGGRRDHKGLTHIFNPPPKRFESILEGLFGPALLKDLSLFKDCEPESISDWTFDENCLFCCLRRDKVKGHLVGLDEPASGAGQEALLKQEQAKIIRFERQAEEFLNAVFYRKDSPWVSDPNIPLVAREIMQRMIQQFAAEYTSKNSSTQDPSQPNSTKNQSLPKASPVTTSPTAATTQNPVLSKLLMADQDSPLDLTVRKSQSEPSEQDGVLDLSTKKSPCAGSTSLSHSPGCSSTQGNGRPGRPSQYRPDGLRSGDGVPPRSLQDGTREGFGHSTSLKVPLARSLQISEELLSRNQLSTAASLGPSGLQNHGQHLILSREASWAKPHYEFNLSRMKFRGNGALSNISDLPFLAENSAFPKMALQAKQDGKKDVSHSSPVDLKIPQVRGMDLSWESRTGDQYSYSSLVMGSQTESALSKKLRAILPKQSRKSMLDAGPDSWGSDAEQSTSGQPYPTSDQEGDPGSKQPRKKRGRYRQYNSEILEEAISVVMSGKMSVSKAQSIYGIPHSTLEYKVKERLGTLKNPPKKKMKLMRSEGPDVSVKIELDPQGEAAQSANESKNE | not failed |
| SSVVKSIELVLPEDRIYLAGSSIKGQVILTLNSTLVDPIVKVELVGRGYVEWSEEAGASCDYSRNVICNNKADYVHKTKTFPVEDNWLSAGSHTFDFHFNLPPRLPSTFTSKFGHVFYFVQASCMGREHILAKKRMYLLVQGTSTFHKETPFQNPLFVEAEEKVSYNCCRQGTVCLQIQMERNTFTPGEKVVFTTEINNQTSKCIKTVVFALYAHIQYEGFTPSAERRSRLDSSELLRQEANTPVTRFNTTKVVSTFNLPLLLSVSSSTQDGEIMHTRYELVTTVHLPWSLTSLKAKVPIIITSASVDSAICQLSEDGVLPVNPDHQN | not failed |
